According to publication PMC6901573:

Assays:
[1] = target: Human hemoglobin A, oxidized form (methemoglobin, MetHb) (human) (UniProt P69905); experiment: SEC; tetramer to dimers; HiLoad 16/600 Superdex 75 in reaction buffer (Tris/HCl 100 mM, NaCl 150 mM, EDTA 1 mM, pH 8.0); Hb in the oxy and met forms injected at different concentrations
[2] = target: Human hemoglobin A, reduced oxygenated form (OxyHb) (human) (UniProt P69905); experiment: as above

| Kd [1] | Kd [2] | Substance |
| --- | --- | --- |
| 520 nM |  | Human hemoglobin A, oxidized form (methemoglobin, MetHb), P69905 1-142; P68871 1-147 (complex; other documents disagree on this pair) |
|  | 250 nM | Human hemoglobin A, reduced oxygenated form (OxyHb), P69905 1-142; P68871 1-147 (complex; other documents disagree on this pair) |
